From US20200129532

Target: T1, HA-tagged VDR (vitamin D receptor), wild type (UniProt P11473)
T1 sequence: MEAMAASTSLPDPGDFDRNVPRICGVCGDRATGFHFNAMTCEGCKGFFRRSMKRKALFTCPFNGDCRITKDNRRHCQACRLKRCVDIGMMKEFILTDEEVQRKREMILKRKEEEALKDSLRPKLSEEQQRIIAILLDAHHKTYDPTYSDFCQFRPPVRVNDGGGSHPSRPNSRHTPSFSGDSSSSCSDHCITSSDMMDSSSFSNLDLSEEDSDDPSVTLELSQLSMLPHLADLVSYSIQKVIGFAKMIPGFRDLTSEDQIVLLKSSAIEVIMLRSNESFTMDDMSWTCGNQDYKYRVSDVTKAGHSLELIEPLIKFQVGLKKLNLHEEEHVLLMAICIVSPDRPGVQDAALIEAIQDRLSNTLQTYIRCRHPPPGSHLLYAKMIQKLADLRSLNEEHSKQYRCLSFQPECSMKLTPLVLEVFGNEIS

enzymatically dead PCAF (D608A)
VDR acetylation: but not with the enzymatically dead PCAF D608A mutant
